In the supplement of paper PMC10126150:
± gives the standard deviation of the averaged measurements.

System: ATP
Assay: switch fluorescence ratio, 500 uM ATP over buffer (Cy3 cluster intensity, sum of 5 cycles each) (fold (ratio)); higher = stronger signal-on switching upon ATP binding; sequences stand for … in TCGTCGGCAGCGTCAGATGTGTATAAGAGACAGTTTTTTTTTTTTTTTTTTTTTTTTT…TC
Details: aptamer strand: ATP DNA aptamer (quencher-CACCTGGGGGAGTATTGCGGAGGAAGG + anchor), 100 nM annealed; ATP concentration: 500 uM
Summary of the method: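 Clusters with intensities outside 100-1000 RFU were excluded. The remaining Cy3-labelled switching-strand clusters on a modified Illumina MiSeq flow-cell had been annealed to 100 nM quencher-labelled ATP aptamer and imaged in selection buffer, then after 15 min with 500 uM ATP at 22 °C, for five cycles separated by NaOH stripping and re-annealing. The fluorescence ratio, averaged per switch-domain sequence, is each cluster's summed target-cycle Cy3 intensity over its summed buffer-cycle Cy3 intensity.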
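Further: ATP exposure 15 min at 22 °C before imaging.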

Row | Sequence | switch fluorescence ratio
1 | TGGTTGTTAG | 1.012 ± 0.0073
2 | TGGTTTACTA | 1.009 ± 0.0096
3 | TGGTTTATAC | 1.32 ± 0.43
4 | TGGTTTATGG | 1.01 ± 0.02
5 | TGGTTTATTT | 0.976 ± 0.01
6 | TGGTTTCTTG | 0.963 ± 0.042
7 | TGGTTTGGCC | 0.97 ± 0.018
8 | TGGTTTGGTT | 0.986 ± 0.04
9 | TGGTTTGTGT | 0.981 ± 0.018
10 | TGGTTTTAAT | 0.973 ± 0.028
11 | TGGTTTTAGA | 0.999 ± 0.016
12 | TGGTTTTAGG | 0.99 ± 0.029
13 | TGGTTTTCGG | 0.993 ± 0.041
14 | TGGTTTTCTT | 0.992 ± 0.03
15 | TGGTTTTGGT | 0.987 ± 0.025
16 | TGGTTTTGT | 1.03 ± 0.066
17 | TGGTTTTTAG | 1.05 ± 0.033
18 | TGTAACTCAT | 1 ± 0.011
19 | TGTAAGACCA | 1.01 ± 0.012
20 | TGTAAGGAAC | 1.26 ± 0.35
21 | TGTAAGGATG | 0.996 ± 0.013
22 | TGTAAGGGTG | 0.974 ± 0.065
23 | TGTAATATGG | 1.1 ± 0.14
24 | TGTAATCCGC | 1.28 ± 0.021
25 | TGTAATGTGA | 1.07 ± 0.14

Row | Sequence | switch fluorescence ratio
26 | TGTACGTTGG | 1.26 ± 0.37
27 | TGTACTTTGG | 1.01 ± 0.022
28 | TGTAGCGGGG | 0.9942 ± 0.0048
29 | TGTAGGAGGG | 0.993 ± 0.01
30 | TGTAGGAGTG | 1.25 ± 0.36
31 | TGTAGGGAGG | 0.966 ± 0.053
32 | TGTAGGGGGG | 0.973 ± 0.034
33 | TGTAGGGTAG | 0.958 ± 0.017
34 | TGTAGGGTGC | 1.07 ± 0.044
35 | TGTAGTCCGT | 0.982 ± 0.0055
36 | TGTAGTGAGT | 0.959 ± 0.037
37 | TGTAGTGTTT | 1.03 ± 0.044
38 | TGTATAAATT | 0.9679 ± 0.0048
39 | TGTATAATGT | 0.985 ± 0.029
40 | TGTATCATGT | 0.99 ± 0.037
41 | TGTATGAGCA | 1.02 ± 0.011
42 | TGTATGGGAA | 0.9352 ± 0.0043
43 | TGTATTAAAG | 0.983 ± 0.029
44 | TGTATTTAGA | 1.02 ± 0.032
45 | TGTATTTGGG | 0.991 ± 0.013
46 | TGTATTTTTT | 1.05 ± 0.093
47 | TGTCAATTGG | 0.984 ± 0.021
48 | TGTCAGAAAT | 0.992 ± 0.02
49 | TGTCCTAGAG | 1.02 ± 0.024
50 | TGTCCTCAGC | 1.51 ± 0.14

Row | Sequence | switch fluorescence ratio
51 | TGTCCTTAAA | 0.9898 ± 0.0039
52 | TGTCGCGTAG | 0.993 ± 0.034
53 | TGTCGCTCGT | 0.992 ± 0.043
54 | TGTCGTCGGG | 0.995 ± 0.026
55 | TGTCGTTGGA | 0.998 ± 0.043
56 | TGTCGTTTTT | 1.01 ± 0.039
57 | TGTCTAGTTA | 0.972 ± 0.0041
58 | TGTCTCCCTT | 1.007 ± 0.0074
59 | TGTGAAAGTG | 0.982 ± 0.041
60 | TGTGAATCAG | 1.018 ± 0.0075
61 | TGTGACAGTT | 1.09 ± 0.1
62 | TGTGACGGAC | 1.12 ± 0.015
63 | TGTGACTCGG | 0.978 ± 0.016
64 | TGTGAGACTT | 1.01 ± 0.052
65 | TGTGAGGCGT | 0.993 ± 0.0036
66 | TGTGATTAGG | 0.996 ± 0.03
67 | TGTGCCAGGG | 1.06 ± 0.024
68 | TGTGCCTGTT | 1.008 ± 0.0018
69 | TGTGGAAAGA | 0.992 ± 0.054
70 | TGTGGCAAAA | 1.015 ± 0.01
71 | TGTGGCACGG | 0.966 ± 0.018
72 | TGTGGCATGA | 0.9736 ± 0.0058
73 | TGTGGCCCAC | 0.989 ± 0.017
74 | TGTGGCGGTT | 1.015 ± 0.0077
75 | TGTGGGAAAA | 1.02 ± 0.048

Row | Sequence | switch fluorescence ratio
76 | TGTGGGATCG | 0.97 ± 0.02
77 | TGTGGGGGAA | 1.2 ± 0.31
78 | TGTGGGGGTC | 0.965 ± 0.042
79 | TGTGGGGTGG | 0.999 ± 0.025
80 | TGTGGGTCGG | 0.968 ± 0.026
81 | TGTGGGTGGT | 1.01 ± 0.018
82 | TGTGGTAGCC | 1.022 ± 0.0018
83 | TGTGGTATGG | 1.008 ± 0.0065
84 | TGTGGTGTGC | 1.01 ± 0.022
85 | TGTGGTTGCG | 1.01 ± 0.017
86 | TGTGGTTTAC | 0.978 ± 0.017
87 | TGTGTAAGAG | 0.9867 ± 0.0063
88 | TGTGTAAGGT | 1.02 ± 0.025
89 | TGTGTATGGC | 1.12 ± 0.19
90 | TGTGTCGGTC | 1.07 ± 0.085
91 | TGTGTGCGCG | 1.02 ± 0.043
92 | TGTGTGGTGT | 0.993 ± 0.036
93 | TGTGTTAAGG | 0.973 ± 0.011
94 | TGTGTTAATA | 0.966 ± 0.013
95 | TGTGTTAGGG | 0.979 ± 0.049
96 | TGTGTTAGTA | 0.9602 ± 0.0053
97 | TGTGTTCTAG | 1.005 ± 0.0046
98 | TGTGTTGATG | 1.01 ± 0.028
99 | TGTGTTGGGA | 0.98 ± 0.016
100 | TGTGTTGGTG | 1.02 ± 0.033
